# Reference: patent US20220073643A1 (NANJING GENSCRIPT BIOTECH, published 2022)
# Numbering of substitutions follows the chain as printed. Where “and” joins values, the source holds several entries; their conditions need not be identical. Identical values can stand only once.
# B1: 420G10G3 (antibody, V domains shown)
# VH: DVQLVESGGGLVQPGGSRKLSCAASGFTFSGFGMHWIRQTAEKGLEWVAYISSGSRPIYYADTVQGRFTISRDNPKNTLFLQMTSLRSEDTAMYFCARFYYGNSFDHWGQGTLVTVSA
# VL: DIVMTQSPSFLTVTAGEKVTMSCKSSQSLLNSGNQKNYLTWYQQKPGQPPKLLIYWASTRESGVPDRFTGSGSGTDFTLTISSVQAEDLALYYCQNAYSFPLTFGAGTKLELK
# B2: 420H3H9 (antibody, V domains shown)
# VH: DVQLVESGGGLVQPGGSRKLSCAASGFTFSSFGMHWVRQAPEKGLEWVAYISSGSSTIYYAHSVKGRFTISRDNPKNTLFLQMTSLGSEDTAMYYCARFYYGNSFAYWGQGTLVTVSA
# VL: B1 VL with F10S, M21L, L52M, L91D, S99T, F100Y, K109R
# B3: 420H7E6 (antibody, V domains shown)
# VH: DVQLVESGGGLVQPGGSRKLSCVTSGFTFSSFGMHWIRQAPEKGLEWVAFISGGGSPIFYADSVKGRFTVSRDNPKNTLFLQMTGLRSEDTAMYFCARFYFGNSFAYWGQGTLVTVSA
# VL: DIVMAQSPSSLTVTAGEKVTMNCRSSQSLFNSGNQKNYLTWYQQKPGQPPKLLIYWASTRESGVPVRFTGSGSGTDFTLTISSVQAEDLAVYYCQTGFSYPLTFGPGTKLELK
# B4: 421H4G3 (antibody, V domains shown)
# VH: B1 VH with T28S, M34L, A41P, Q65K, Y101F, A118T
# VL: B1 VL with K24R, K36R, S82N
# B5: 422E8F9 (antibody, V domains shown)
# VH: B1 VH with A41P, A118S
# VL: B1 VL
# B6: 422F4B6 (antibody, V domains shown)
# VH: B2 VH with T28S, T57P, H62D, S63T, T69I, G87R, Y95F, F99I
# VL: B1 VL with F10S, S28T, L91V, F100Y, A106S
# B7: 423B2B5 (antibody, V domains shown)
# VH: B1 VH with G31S, I37V, T40A, A41P, R56S, A61S, Q65K, T84S, F99I
# VL: B1 VL with F10S, S22N, L91V, A97D, F100Y
# B8: 423C10E1 (antibody, V domains shown)
# VH: B3 VH with I37V
# VL: B3 VL with A5T, P49S, G97S, S99N
# B9: 424G9G3 (antibody, V domains shown)
# VH: QVQLQQSGPEVVRPGASVKMSCKGSGYTLNNFWMHWVKQRPGQGLEWIGMIDTSNGETRLNQIFKDKATLTVDKSSKTAYMQLSSLTSEDSAVYYCAPYGNFADWGQGTTLTVSS
# VL: DVLLTQTPLSLPVSLGDQASISCRSSQSIVYGNGNTYLEWYLQKPGQSPKLLIYKVSSRFSGVPDRFSGSGSGTDFTLKITKVEAEDLGVYYCFQGSHVPFTFGSGTKLEIK
# B10: 207F8G5 (antibody, V domains shown)
# VH: QAYLQQSGAELVRSGASVKMSCKASGFTFTSYNIHWVKQTPGQGLEWIGYISPGNGGSNYNLKFKDKATLTSATSSSTAYMQISSLTSEDSAVYFCATGRGFAYWGQGTLVTVSA
# VL: B1 VL with F10S, A15P, L30F, T40I, W56R, E61D, S83N, L91I, A97D, F100Y
# B11: 425B3D5 (antibody, V domains shown)
# VH: B1 VH with A41P, A118S
# VL: B1 VL
# B12: 425C6D3 (antibody, V domains shown)
# VH: B1 VH with A41P, A118S
# VL: B1 VL
# B13: 426D9F6 (antibody, V domains shown)
# VH: B1 VH with A41P, Q65K
# VL: B1 VL with K36R, I81V
# B14: 426H6E11 (antibody, V domains shown)
# VH: B1 VH with A41P, A118S
# VL: B1 VL with S7F, S28T, K109N
# B15: 182D10F1 (antibody, V domains shown)
# VH: QAYLQQSGAELVRSGASVKMSCKASGYTFSSYNMHWVKQTPGQGLEWIGYIYPGNGGTNYNQKFKGKATLTADTSSSTAYMQISSLTSEDSAVYFCLTGRGFTYWGQGTLVTVSA
# VL: B3 VL with A5T, R24K, W56R, V66D, T96N, G97D, F98Y, P106V
# B16: 429G4E9 (antibody, V domains shown)
# VH: B2 VH with T57P, H62D, S63T, G87R, Y95F, R98T
# VL: B1 VL with F10S, S28T, P46S, L91V, F100Y, L102V, A106S, L110V
# B17: 429H6C5 (antibody, V domains shown)
# VH: B2 VH with G44E, S63T, Q82R, A97V, A106V, Y107N
# VL: B1 VL with F10S, V13A, L52M, T69A, L91V, S99I, F100Y, K109R
# B18: 430B3F1 (antibody, V domains shown)
# VH: B1 VH with A41P, S55G, V116I, A118S
# VL: B1 VL
# B19: 213B10A4 (antibody, V domains shown)
# VH: B15 VH with L4V, K23R, S30T, N59Y, L97A, T103A
# VL: B1 VL with F10S, W56R, S73F, L91V, A97D, F100Y
# B20: 217D9G2 (antibody, V domains shown)
# VH: B10 VH with K63N, S72A, S77T
# VL: DIVMTQSPSSLTVTPGEKVTMSCRSSQSLFNSGNQKNYLIWYQQKPGQPPKLLIYRASTRDSGVPDRFTGSGSGTDFTLTISNVQAEDLAVYYCQNDYSYPLTFGAGTKLELK
# B21: 219F9B8 (antibody, V domains shown)
# VH: B15 VH with K19R, S30T, G57H, L97A, T103A
# VL: B1 VL with F10S, W56R, L91V, A97D, F100Y, A106V
# B22: 222B6G5 (antibody, V domains shown)
# VH: B10 VH with A2T, F27Y, S58T, N59Y, S72T
# VL: B20 VL with R24K
# B23: 226A4B5 (antibody, V domains shown)
# VH: B10 VH with K19R, S52Y, N55S, L62Q, K65M, D66G, S72A, A73D, A79V
# VL: B20 VL with P15A, R24K, I40T, D61E, N83S, A106T
# B24: 231C11E9 (antibody, V domains shown)
# VH: EVMLVESGGGLVKPGGSLKLSCAASGFTFNNYVMCWVRQTPEKRLEWVATISSGNFYTYYPDSVKGRFTISRDNAKNTLYLQMSSLRSEDTAIYYCASLGRGNALDNWGQGTSVTVSS
# VL: B1 VL with S9A, F10S, G16K, K24R, L91V, A97D, F100Y, L102F, A106S, L112I
# B25: 231H4G11 (antibody, V domains shown)
# VH: QAYLQQSGAELVRSGASVKMSCKASGYTFTSHNIHWVKQTPGQGLEWIGYISPGNGYTNYNQKFRGKATLTADTSSSTAYMQISSLTSEDSAVYFCTRDYYGNSFAYWGQGTLVTVSA
# VL: DIVMTQSPSSLTEKAGERVSMSCKSSQSLFNSGSQKNYLTWYQQKPGQPPKLLIYWASTRESGVPDRFSGSGSGTDFTLTISSVQAEDLAVYYCQNNYWFPFTFGAGTKLELK
# B26: 232C5E3 (antibody, V domains shown)
# VH: B25 VH with V37I, Q43K, S52Y, Y57G, R65K, G66A, T97A
# VL: B25 VL with V3M, K14T, R18K, F30L, S34N, N97G, W99R
# B27: 185F2G12 (antibody, V domains shown)
# VH: B15 VH with S30T, K38R, N61S, T69S, S77T, L97A, T103A
# VL: B20 VL with P15A, M21L, R24K, S32T, I40T, Y55F, D61E, S73F, N83S, Y98F
# Biological target: human Claudin18.2 (human)
# Assay: cell-based or functional assay
Binder,CDC % Relative activity,CDC EC50
B1,72.4%,2.63 µg/mL
B2,458%,0.416 µg/mL
B3,48.8%,3.9 µg/mL
B4,65.9%,2.89 µg/mL
B5,89.2%,2.14 µg/mL
B6,31.6%,6.03 µg/mL
B7,6.38%,29.9 µg/mL
B8,56.2%,3.39 µg/mL
B9,9.38%,20.3 µg/mL
B10,627%,0.305 µg/mL
B11,63%,3.02 µg/mL
B12,96.6%,2.08 µg/mL
B13,32.4%,6.21 µg/mL
B14,80%,2.51 µg/mL
B15,195%,0.811 µg/mL
B16,164%,1.23 µg/mL
B17,331%,0.607 µg/mL
B18,70.2%,2.87 µg/mL
B19,121%,1.59 µg/mL
B20,707%,0.271 µg/mL
B21,603%,0.318 µg/mL
B22,–,0.278 µg/mL and 0.259 µg/mL
B23,73%,1.78 µg/mL
B24,83.7%,1.55 µg/mL
B25,88%,1.48 µg/mL
B26,226%,0.575 µg/mL
B27,543%,0.291 µg/mL
